The results in this text go back to US20190282683A1.

This experiment has as its target Ag85b protein from Mycobacterium tuberculosis (poly-His tagged test protein) (Mycobacterium tuberculosis).

In turn, “splenocytes of mice injected with Sbi-III-IV-Ag85b (cells without a defined receptor)” yielded a Secreted IFN-gamma in the tissue culture supernatant (ELISA) of 4 fold.
